# From the supplement of paper PMC9112550, “Optimization of the antimicrobial peptide Bac7 by deep mutational scanning” (BMC Biology, 2022)
# Tested on: Escherichia coli TOP10
# Assay: shrunken log2 fold change of peptide-encoding DNA abundance (4.5 h post-induction vs induction); higher = less antimicrobial activity (less host growth inhibition)
# Conditions: time post-induction: 4.5 h; library: site-saturation at positions 5, 18, 19, 20
# 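Note: peptides expressed intracellularly from a pBAD plasmid library in pooled LB shake-flask culture, induced with 0.3% L-arabinose, DNA abundance read by NGS, three biological replicates, DESeq2 with apeglm shrinkage.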
row,Sequence,shrunken log2 fold change
1,RRIRLRPPRLPRPRPRPCYPPRP,-0.661
2,RRIRFRPPRLPRPRPRPKPAPRP,0.739
3,RRIRSRPPRLPRPRPRPFNHPRP,-1.19
4,RRIRCRPPRLPRPRPRPHYHPRP,-0.755
5,RRIRVRPPRLPRPRPRPMKRPRP,0.0336
6,RRIRTRPPRLPRPRPRPSPRPRP,0.396
7,RRIRMRPPRLPRPRPRPHDTPRP,0.048
8,RRIRERPPRLPRPRPRPKTSPRP,-0.102
9,RRIRHRPPRLPRPRPRPGTWPRP,-0.0162
10,RRIRFRPPRLPRPRPRPPVIPRP,0.0684
11,RRIRNRPPRLPRPRPRPNDMPRP,-0.457
12,RRIRQRPPRLPRPRPRPFNCPRP,-0.0275
13,RRIRWRPPRLPRPRPRPHESPRP,-0.262
14,RRIRCRPPRLPRPRPRPDVPPRP,-0.0242
